Measured values: patent US8735553 (BEIGENE SWITZERLAND, dated 2014)
Where two headings read alike, the source gives them in different places.

Assays:
[1] = biological target: T1, human PD-1 expressed on cells (human, UniProt Q15116 25-288); assay: cell-based or functional assay
[2] = biological target: T1, human PD-1 expressed on cells; assay: cell-based or functional assay; remark: listed apart in the source
[3] = biological target: P3Z chimeric PD-1 receptor (human); assay: cell-based or functional assay
[4] = biological target: P3Z chimeric PD-1 receptor (human); assay: cell-based or functional assay; remark: listed apart in the source
[5] = biological target: T1, human PD-1 expressed on cells; assay: cell-based or functional assay; remark: listed apart in the source
[6] = biological target: T1, human PD-1 expressed on cells; assay: cell-based or functional assay; remark: listed apart in the source
[7] = biological target: T1, human PD-1 expressed on cells; assay: cell-based or functional assay; remark: listed apart in the source
[8] = biological target: P3Z chimeric PD-1 receptor (human); assay: cell-based or functional assay; remark: listed apart in the source
[9] = biological target: T1, human PD-1 expressed on cells; assay: FACS on PD-1-expressing cells
[10] = biological target: T2, PD-1-EC/Fc (human, UniProt Q15116 21-168); assay: SPR (BIAcore T-200), mAb captured on anti-mouse Fc chip, PD-1/Fc injected
T2 construct: AA 1-168 includes the signal peptide; Made in 293-F cells; also called PD-1/Fc
Protocol: Anti-mouse Fc CM5 biosensor chip (GE Healthcare) was generated using a standard primary amine coupling protocol. […] Association rates (K_a or $kon$) and dissociation rates (K_d or $koff$) were calculated using the one-to-one Langmuir binding model (BIA Evaluation Software, GE Life Sciences). The equilibrium dissociation constant (K_D) was calculated as the ratio $koff/kon$.

[11] = biological target: T1, human PD-1 expressed on cells; assay: FACS on HuT78/PD-1 cells, MFI against Ab concentration (unit taken from the x axis, µg/ml)
Protocol: To block human Fc receptors, cells were pre-incubated with human IgG (20 μg/ml) (Cat. No. H11296, LifeHolder, USA and Shanghai, China).
Dose-dependent reaction curve of murine mAbs binding to human PD-1 expressed on live cells by FACS analyses. […] MFI stands for mean fluorescence intensity. HuT78/PD-1 cells were suspended in 96-well plate at 5 ×10^4 cells per well for FACS.

[12] = biological target: T3, wild-type human PD-1 recombinant protein (PD-1/His or PD-1/Fc, not said which) (human, UniProt Q15116 21-168); assay: ELISA on coated recombinant PD-1; cell carries the * mark (Fab version); ELISA cell marked *
T3 construct: also called WT PD-1

[13] = biological target: T1, human PD-1 expressed on cells; assay: FACS on PD-1-expressing cells; remark: listed apart in the source
[14] = biological target: T4, human FcγRIIIA (F158) (human, UniProt P08637 17-254); assay: flow cytometry, FcγR+ HEK293 cells
T4 construct: whole, on cells
Protocol: (§1) Binding of various IgG4 mutants to FcγRs was determined by flow cytometry. In brief, a series of HEK293 transfectants expressing human FcγRs were established. These transfectants expressed FcγRI, FcγRIIA, FcγRIIB or FcγRIIIA Multi-subunit FcγRs (i.e., FcγR1 and FcγRIIIA) were co-expressed with FcRγ. Polymorphic variants (i.e., FcγRIIA H131 and R131, FcγRIIIA F158 and V158) were also included.

[15] = biological target: T5, human FcγRIIIA (V158) (human, UniProt P08637 17-254); assay: flow cytometry, FcγR+ HEK293 cells
T5 construct: whole, on cells; also called CD16 (V158 allele)
Protocol: as §1

[16] = biological target: T6, human FcγRI (human, UniProt P12314 16-374); assay: flow cytometry, FcγR+ HEK293 cells
T6 construct: whole, on cells; also called FcγR1
Protocol: as §1

[17] = biological target: T7, PD-1-EC/His (human, UniProt Q15116 21-168); assay: SPR (BIAcore T-200), human PD-1/His coupled to CM5 chip, Fab injected
T7 construct: AA 1-168 includes the signal peptide; also called PD-1/His; human PD-1/His
Protocol: For affinity determinations of anti-PD-1 Fabs, SPR assays were used with the BIAcore™ T-200 instrument (GE Life Sciences). […] Association rates ($kon$) and dissociation rates ($koff$) were calculated using the one-to-one Langmuir binding model (BIA Evaluation Software, GE Life Sciences). The equilibrium dissociation constant (K_d) was calculated as the ratio $koff/kon$.

[18] = biological target: T6, human FcγRI; assay: flow cytometry, FcγR+ HEK293 cells; remark: listed apart in the source
Protocol: as §1

[19] = biological target: T8, human FcγRIIA (H131) (human, UniProt P12318 34-317); assay: flow cytometry, FcγR+ HEK293 cells
T8 construct: whole, on cells
T8 sequence (looked up): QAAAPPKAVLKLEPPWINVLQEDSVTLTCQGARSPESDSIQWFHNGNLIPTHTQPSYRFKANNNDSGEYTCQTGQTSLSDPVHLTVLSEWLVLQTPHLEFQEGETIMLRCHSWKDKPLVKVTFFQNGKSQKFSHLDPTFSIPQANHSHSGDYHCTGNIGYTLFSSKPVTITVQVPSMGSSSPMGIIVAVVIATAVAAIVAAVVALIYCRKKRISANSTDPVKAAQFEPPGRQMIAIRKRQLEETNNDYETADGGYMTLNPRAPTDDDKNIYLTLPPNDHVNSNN
Protocol: as §1

[20] = biological target: T9, human FcγRIIA (R131) (human, UniProt P12318 34-317); assay: flow cytometry, FcγR+ HEK293 cells
T9 construct: whole, on cells
T9 sequence (looked up): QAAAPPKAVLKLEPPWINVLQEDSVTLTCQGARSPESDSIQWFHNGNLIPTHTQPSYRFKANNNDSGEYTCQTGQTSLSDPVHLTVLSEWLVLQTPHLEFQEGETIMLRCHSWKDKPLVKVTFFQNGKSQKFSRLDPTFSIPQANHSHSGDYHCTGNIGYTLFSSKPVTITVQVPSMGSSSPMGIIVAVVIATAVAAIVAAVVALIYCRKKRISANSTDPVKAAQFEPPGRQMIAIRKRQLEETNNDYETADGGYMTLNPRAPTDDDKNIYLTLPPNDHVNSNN
Protocol: as §1

[21] = biological target: T4, human FcγRIIIA (F158); assay: flow cytometry, FcγR+ HEK293 cells; remark: listed apart in the source
Protocol: as §1

[22] = biological target: T1, human PD-1 expressed on cells; assay: cell-based or functional assay; remark: listed apart in the source
[23] = biological target: P3Z chimeric PD-1 receptor (human); assay: cell-based or functional assay; remark: listed apart in the source
[24] = biological target: T1, human PD-1 expressed on cells; assay: FACS on PD-1-expressing cells, goat anti-mouse IgG detection

P3Z chimeric PD-1 receptor (human), sequence (chain, as listed by the source mutant limits assumed): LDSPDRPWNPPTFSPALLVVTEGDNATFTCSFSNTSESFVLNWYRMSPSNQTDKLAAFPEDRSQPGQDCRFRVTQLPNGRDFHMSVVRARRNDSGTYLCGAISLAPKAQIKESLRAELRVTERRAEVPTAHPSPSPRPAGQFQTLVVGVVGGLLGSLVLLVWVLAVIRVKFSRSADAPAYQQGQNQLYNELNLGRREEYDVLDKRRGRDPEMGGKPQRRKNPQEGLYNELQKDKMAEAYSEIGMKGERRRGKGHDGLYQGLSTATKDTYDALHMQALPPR
T2 sequence (Q15116 21-168 limits assumed): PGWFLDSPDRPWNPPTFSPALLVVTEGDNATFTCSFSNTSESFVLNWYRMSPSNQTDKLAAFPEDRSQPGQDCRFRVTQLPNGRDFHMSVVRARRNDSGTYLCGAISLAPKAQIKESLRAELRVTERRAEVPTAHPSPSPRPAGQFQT
T1 sequence (Q15116 25-288): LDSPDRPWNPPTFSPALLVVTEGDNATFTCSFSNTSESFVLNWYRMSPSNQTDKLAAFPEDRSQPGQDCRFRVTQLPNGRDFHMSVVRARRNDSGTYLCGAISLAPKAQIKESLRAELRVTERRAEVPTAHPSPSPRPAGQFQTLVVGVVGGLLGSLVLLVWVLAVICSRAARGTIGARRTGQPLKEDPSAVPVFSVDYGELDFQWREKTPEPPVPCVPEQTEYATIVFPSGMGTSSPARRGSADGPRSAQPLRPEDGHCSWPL
T6 sequence (P12314 16-374): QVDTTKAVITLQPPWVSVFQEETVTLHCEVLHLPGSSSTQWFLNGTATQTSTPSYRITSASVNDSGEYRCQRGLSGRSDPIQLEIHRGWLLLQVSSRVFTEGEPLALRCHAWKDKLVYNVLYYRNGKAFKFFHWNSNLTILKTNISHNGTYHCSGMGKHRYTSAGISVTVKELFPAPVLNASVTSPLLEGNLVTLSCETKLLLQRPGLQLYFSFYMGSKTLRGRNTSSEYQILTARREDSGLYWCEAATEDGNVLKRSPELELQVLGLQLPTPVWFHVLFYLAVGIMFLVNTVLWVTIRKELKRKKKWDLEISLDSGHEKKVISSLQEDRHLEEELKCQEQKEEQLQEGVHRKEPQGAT
T4 sequence (P08637 17-254): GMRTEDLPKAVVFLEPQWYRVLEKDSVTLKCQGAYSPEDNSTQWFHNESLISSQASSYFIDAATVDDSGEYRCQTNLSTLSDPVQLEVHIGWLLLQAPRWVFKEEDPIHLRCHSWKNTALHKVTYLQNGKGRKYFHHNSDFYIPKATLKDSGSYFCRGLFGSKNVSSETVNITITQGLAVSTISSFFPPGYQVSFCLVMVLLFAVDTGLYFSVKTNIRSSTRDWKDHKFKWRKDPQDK
T3 sequence (Q15116 21-168 limits assumed): as the sequence (Q15116 21-168 limits assumed) above
T7 sequence (Q15116 21-168): as the sequence (Q15116 21-168 limits assumed) above
T5 sequence (P08637 17-254 F176V limits assumed): as the sequence (P08637 17-254) above, with F160V counted along it

B1: murine mAb 326 (antibody, V domains shown)
VH: QIQLVQSGPELKKPGETVKISCKASGYTFTNYGMNWVKQAPGKGLKWMGWINNNNGEPTYAEEFKGRFAFSLETSASTAYLQINNLKNEDTATYFCARDVMDYWGQGTSVTVSS
VL: DIVLTQSPASLAVSLGQRATISCRASESVDNYGYSFMHWYQQKPGQPPQLLIYRASNLESGIPARFSGSGSRTGFTLTINPVEADDVATYYCQQSKEYPTFGGGTKLEVK
notes: Murine hybridoma antibody; also called mu326
IL-2 release, EC50 (HuT78/PD-1 + HEK293/OS8/PD-L1) [1]: 0.053 µg/mL
IL-2 release, EC50 (HuT78/PD-1 + HEK293/OS8/PD-L2) [2]: 0.038 µg/mL
Inhibition of IL-2 secretion, IC50 (HuT78/P3Z + HEK293/PD-L1) [3]: 0.039 µ/ml
Inhibition of IL-2 secretion, IC50 (HuT78/P3Z + HEK293/PD-L2) [4]: 0.018 µg/mL
IFN-γ secreted, EC50 (NK92MI/PD-1 + SK-MES-1/PD-L1) [5]: 0.2 µg/mL
Cytotoxicity of NK92MI/PD-1 cells against SK-MES-1/PD-L1, EC50 [6]: 0.37 µg/mL
Assay-1 IL-2 release, EC50 (HuT78/PD-1 + HEK293/OS8/PD-L1) [7]: 0.038 µg/mL
Assay-1 IL-2 release, Top line (HuT78/PD-1 + HEK293/OS8/PD-L1) [7]: 1150 pg/mL
Assay-2 IL-2 release, IC50 (HuT78/P3Z + HEK293/PD-L1) [8]: 0.14 µg/mL
Assay-2 IL-2 release, Max inhibition (HuT78/P3Z + HEK293/PD-L1) [8]: 96.9%
EC50 [9]: 0.126 µg/mL
Top MFI [9]: 195 MFI
Kd [10]: 0.324 nM
koff [10]: 7.79e-05 s⁻¹
kon [10]: 240000 M⁻¹ s⁻¹
EC50 [11]: 0.126 µg/mL

B2: hu326-4A3 Fab (Fab, V domains shown)
VH: QVQLVQSGSELKKPGASVKVSCKASGYTFTNYGMNWVRQAPGQGLKWMGWINNNNAEPTYAQDFRGRFVFSLDTSASTAYLQISSLKTEDTAVYYCARDVMDYWGQGTLVTVSS
VL: DIVLTQSPASLAVSPGQRATITCRASESVDNYGYSFMHWYQQKPGQPPKLLIYRASNLESGVPARFSGSGSGTDFTLTINPVEAEDTANYYCQQSKEYPTFGGGTKVEIK
notes: Fab: VH on human IgG2 CH1 (C232S, C233S, Kabat) with C-terminal c-Myc-His8 tag; also called hu326-4A3 (Fab version)
EC50 [12]: 0.091 µg/mL

B3: hu326-3B1 (antibody, V domains shown)
VH: QVQLVQSGSELKKPGASVKVSCKASGYTFTNYGMNWVRQAPGQGLKWMGWINNNNGEPTYAQDFRGRFVFSLDTSASTAYLQISSLKTEDTAVYYCARDVMDYWGQGTLVTVSS
VL: DIVLTQSPASLAVSPGQRATITCRASESVDNYGYSFMHWYQQKPGQPPKLLIYRASNLESGVPARFSGSGSRTDFTLTINPVEANDTANYYCQQSKEYPTFGGGTKVEIK
notes: Humanized mAb
EC50 [13]: 0.165 µg/mL

B4: hu326-4A3/IgG4mt10 (antibody)
heavy: QVQLVQSGSELKKPGASVKVSCKASGYTFTNYGMNWVRQAPGQGLKWMGWINNNNAEPTYAQDFRGRFVFSLDTSASTAYLQISSLKTEDTAVYYCARDVMDYWGQGTLVTVSSASTKGPSVFPLAPCSRSTSESTAALGCLVKDYFPEPVTVSWNSGALTSGVHTFPAVLQSSGLYSLSSVVTVPSSSLGTKTYTCNVDHKPSNTKVDKRVESKYGPPCPPCPAPPVAGGPSVFLFPPKPKDTLMISRTPEVTCVVVAVSQEDPEVQFNWYVDGVEVHNAKTKPREEQFNSTYRVVSVLTVVHQDWLNGKEYKCKVSNKGLPSSIEKTISKAKGQPREPQVYTLPPSQEEMTKNQVSLTCLVKGFYPSDIAVEWESNGQPENNYKTTPPVLDSDGSFFLYSKLTVDKSRWQEGNVFSCSVMHEALHNHYTQKSLSLSLGK
VL: DIVLTQSPASLAVSPGQRATITCRASESVDNYGYSFMHWYQQKPGQPPKLLIYRASNLESGVPARFSGSGSGTDFTLTINPVEAEDTANYYCQQSKEYPTFGGGTKVEIK
notes: Light chain constant region not restated for this format; copies: 2 + 2
binding result [14]: no binding
binding result [15]: no binding
binding result [16]: no binding

B5: hu326-3G1 Fab (Fab, V domains shown)
VH: QVQLVQSGPELKKPGASVKVSCKASGYTFTNYGMNWVRQAPGQGLKWMGWINNNNGEPTYAQDFRGRFVFSLDTSASTAYLQISSLKTEDTAVYYCARDVMDYWGQGTLVTVSS
VL: DIVLTQSPASLAVSPGQRATITCRASESVDNYGYSFMHWYQQKPGQPPKLLIYRASNLESGVPARFSGSGSRTDFTLTINPVEANDTANYYCQQSKEYPTFGGGTKVEIK
notes: Fab: VH on human IgG2 CH1 (C232S, C233S, Kabat) with C-terminal c-Myc-His8 tag
Kd [17]: 1 nM

B6: hu317-4B6/IgG4mt6 (antibody)
heavy: QVQLQESGPGLVKPSETLSLTCTVSGFSLTSYGVHWIRQPPGKGLEWIGVIYADGSTNYNPSLKSRVTISKDTSKNQVSLKLSSVTAADTAVYYCARAYGNYWYIDVWGQGTTVTVSSASTKGPSVFPLAPCSRSTSESTAALGCLVKDYFPEPVTVSWNSGALTSGVHTFPAVLQSSGLYSLSSVVTVPSSSLGTKTYTCNVDHKPSNTKVDKRVESKYGPPCPPCPAPPVAGGPSVFLFPPKPKDTLMISRTPEVTCVVVAVSQEDPEVQFNWYVDGVEVHNAKTKPREEQFNSTYRVVSVLTVLHQDWLNGKEYKCKVSNKGLPSSIEKTISKAKGQPREPQVYTLPPSQEEMTKNQVSLTCLVKGFYPSDIAVEWESNGQPENNYKTTPPVLDSDGSFFLYSRLTVDKSRWQEGNVFSCSVMHEALHNHYTQKSLSLSLGK
VL: DIVMTQSPDSLAVSLGERATINCKSSESVSNDVAWYQQKPGQPPKLLINYAFHRFTGVPDRFSGSGYGTDFTLTISSLQAEDVAVYYCHQAYSSPYTFGQGTKLEIK
notes: as for B4
MFI [18]: 1 MFI

B7: hu317-1/IgG4mt6 (antibody)
heavy: QVQLQESGPGLVKPSETLSLTCTVSGFSLTSYGVHWIRQPPGKGLEWLGVIWAGGSTNYNPSLKSRLTISKDNSKSQVSLKMSSVTAADTAVYYCARAYGNYWYIDVWGQGTTVTVSSASTKGPSVFPLAPCSRSTSESTAALGCLVKDYFPEPVTVSWNSGALTSGVHTFPAVLQSSGLYSLSSVVTVPSSSLGTKTYTCNVDHKPSNTKVDKRVESKYGPPCPPCPAPPVAGGPSVFLFPPKPKDTLMISRTPEVTCVVVAVSQEDPEVQFNWYVDGVEVHNAKTKPREEQFNSTYRVVSVLTVLHQDWLNGKEYKCKVSNKGLPSSIEKTISKAKGQPREPQVYTLPPSQEEMTKNQVSLTCLVKGFYPSDIAVEWESNGQPENNYKTTPPVLDSDGSFFLYSRLTVDKSRWQEGNVFSCSVMHEALHNHYTQKSLSLSLGK
VL: DIVMTQSPDSLAVSLGERATINCKASQSVSNDVAWYQQKPGQPPKLLINYAFHRFTGVPDRFSGSGYGTDFTLTISSLQAEDVAVYYCHQAYSSPYTFGGGTKLEIK
notes: as for B4
MFI [19]: 1 MFI
MFI [20]: 0.8 MFI
MFI [21]: 0.9 MFI

B8: murine mAb 317 (antibody, V domains shown)
VH: QVQLKESGPGLVAPSKNLSITCTVSGFSLTSYGVHWIRQPPGKGLEWLGVIWAGGSTNYNSALMSRLSISKDNSRSQVFLRMNSLQTDDTAMYYCARAYGNYWYIDVWGAGTTVTVSS
VL: DIVMTQTPKFLLVSAGDRVTITCKASQSVSNDVAWYQQKPGQSPKLLINYAFHRFTGVPDRFTGSGYGTDFIFTISTVQAEDLAVYFCHQAYSSPYTFGGGTKLEMK
notes: Murine hybridoma antibody; also called mu317
IL-2 release, EC50 (HuT78/PD-1 + HEK293/OS8/PD-L1) [1]: 0.083 µg/mL
IL-2 release, EC50 (HuT78/PD-1 + HEK293/OS8/PD-L2) [2]: 0.032 µg/mL
Inhibition of IL-2 secretion, IC50 (HuT78/P3Z + HEK293/PD-L1) [3]: 0.083 µ/ml
Inhibition of IL-2 secretion, IC50 (HuT78/P3Z + HEK293/PD-L2) [4]: 0.02 µg/mL
IFN-γ secreted, EC50 (NK92MI/PD-1 + SK-MES-1/PD-L1) [5]: 0.4 µg/mL
Cytotoxicity of NK92MI/PD-1 cells against SK-MES-1/PD-L1, EC50 [6]: 0.5 µg/mL
Assay-1 IL-2 release, EC50 (HuT78/PD-1 + HEK293/OS8/PD-L1) [22]: 0.11 µg/mL
Assay-1 IL-2 release, Top line (HuT78/PD-1 + HEK293/OS8/PD-L1) [22]: 346 pg/mL
Assay-2 IL-2 release, IC50 (HuT78/P3Z + HEK293/PD-L1) [23]: 0.11 µg/mL
Assay-2 IL-2 release, Max inhibition (HuT78/P3Z + HEK293/PD-L1) [23]: 99.5%
EC50 [24]: 0.11 µg/mL
